Measured values from a protein production outcome set (Wang et al. 2014).

Experiment: label from the status in PepcDB records

MQLEVILPLVAYLVVVFGISVYAMRKRSTGTFLNEYFLGSRSMGGIVLAMTLTATYISASSFIGGPGAAYKYGLGWVLLAMIQLPAVWLSLGILGKKFAILARRYNAVTLNDMLFARYQSRLLVWLASLSLLVAFVGAMTVQFIGGARLLETAAGIPYETGLLIFGISIALYTAFGGFRASVLNDTMQGLVMLIGTVVLLIGVVHAAGGLSNAVQTLQTIDPQLVTPQGADDILSPAFMTSFWVLVCFGVIGLPHTAVRCISYKDSKAVHRGIIIGTIVVAILMFGMHLAGALGRAVIPDLTVPDLVIPTLMVKVLPPFAAGIFLAAPMAAIMSTINAQLLQSSATIIKDLYLNIRPDQMQNETRLKRMSAVITLVLGALLLLAAWKPPEMIIWLNLLAFGGLEAVFLWPLVLGLYWERANAKGALSAMIVGGVLYAVLATLNIQYLGFHPIVPSLLLSLLAFLVGNRFGTSVPQATVLTTDK
protein production: failed

MVLYFLSSIIIAPIKTGDKAPQVDECCLKTVSDLTFFTNNEKYIWPVPDFCVRMELLAFEAIPQLSKKIIEDIPGAYQGCPRMCKVKFKKNHLKGFTLDTIYAELGTTHVIDCIVTPRIEEQELMKTIMEEEDDDDVADVVVESWLKRHKEGRLIMFDELYQQDIQTLKITSSR
protein production: failed

MMCGGRGTRLDAAAEKPLFEVGGRAMVDHVRAALEAAGRIDTTHAAVSPHAPDTAAHLAATPLSLIETPGDGYVADLTAALDAVGTPVLTVAADLPLLAPAVVDTVVAAADGATTSACVPRALKHELGVSTDADADAWVPTGVNVVGGGDTEATHRSFDARLAVNVNHRSDAAVAARLLAATDRRNHPRLEHHHHHH
protein production: failed

MLDLNPNQSYIIRINKKGGINMHWLADLLAAIGVVLNGIPQGIMAMSLGFAVFPTAFSFGLVGLINGVASSVAPVSFQAESLALVGHLGHDLRERSSIIFLGASLMFVIGLTGTLPLIVHSLGNQLMAAMMAGVGLMLAKIALQMAHEQPQFGWLSIGLAGVTYLISKDLVWTIAVSVIGTSCYAATTHYRVALPEHVTTRKLQFVRPQFSFKILRGALSLACLNIGANLSYGLITGQMTGQHPNPVNLNLLTSSQALADLGTSLLGGAPVETIISATASAPEPVIAGILMMLIMMLILLLGWLPKLGKVVPSTAIAGFLFILGTIVIFPENATTALHGSLSTVAGVTLVVTALVDPFAGLMTGALLKFGLPLIGLGL
protein production: failed

MTTYTSIANVIKERRSVRTFTDKAVEKDLLIELLNDATWAPNHKHREPWNCKLYIGEGRKKLVDAVLNSFTEEERAKRGKILSDRFLSTPAQIVVYMNEDPRQIQRDEDYAATCAFMQNFQLLAWERGLGCVWKSGGLNYNPLFIEGIGLTRGQRIVGILHIGYFDKAPEGKARTPITEKMEIIEG
protein production: not failed

MARQTYGTTPWGAWFLDMLKAYDDSGRLSRGKTYANTGKVNSLVVNGQTAGAKVKGNYSPWYHVYFKFPPLSKTNKTAIRSILEKHPIELAGLRAGIMSPALIEALKKKKVRLIPARWNLIERDCTCPDSGDPCKHMAAVLFLLAKEIDHDPRLLFKLAGFDIDSINVPETEVFEKGGTQKLGLLQEQPVPLSLRKNETLNKAADLSSDSSVSETAHNSCELQSPLKFSLGESYLPLITNILPPEPNFSSSDFIIKLTEFYHKAVLNYGLNFYGQEKQSEKQEEKSVNPFLFARVKVNIDNIRKQKRAFPLEPKSPLTVNIKLGETHEINQTLLQAQNFYKTRNSLNEMSPSVKILFSLFALAGKLIQSSAFIPAVFTENKKLFIFWKSLSASSEIKADIFKFAASLTKDFFLPVGKWGRLYCAELLLTALLTEYAASLKFFPNKSYTKDKEIDKLFFLNEEIDISVPGKRNLDTVIYSWLSVLNYSNCGYEYRLTLEALKDDEFFLLSALVRKAKEKRIEAGDDSFALEAEAPFAELNTAAKRSKNPDDILRFPATLAAYLPALSILAIKKNVMLSREETGLFLQKSAKLLQRFGIDIVLPKSLKNILTPKPVISVKSVKGAGNIVSFLNIDDVLSYDRALMLGDTLIDIDEFKKLFLNKSGLVKFNDQFLLLDPEEVAKMLKALEKPADTKEVLQAVLSGNAVCSKPASEIIKNIFRQEEVPVPQNLNAELRPYQKQGYRWLYANIKSGFGCLLADDMGLGKTVQIISLMLSFKNSKEAESPFLVIAPASLLSNWEHEIAKFAPSLKTAVYHGAGRKFTTEADVIISTYQTMQKDIEKLKDKKVFCIILDEAQAIKNSGTKKAHAVKAIQARGRVALTGTPVENNLEDMRSIFDFFLPGYLGTADEFRKKWRIPIELHNSETEADDLKKITSPFLLRRLKTDPKVISDLPDKIITNQYCNLTPEQLAIYENLVETELHKVMGAETKIERQAYVLKLLTALKQVCNHPRAYDKETPIEMKYSGKAAVLIELLNEIISSGEKAIIFSQYVGTLDILKNIIQKELGTEPLLLHGQMPASKRKKAVEVFQTDSAYRIFLISLKAGGTGLNLTAANRVIHFDLWYNPAVEDQATDRAFRIGQTKNVFVHRLICSGTFEEKIDEMIQKKREISGMSISAGETWISKLSNEELAGLFKS
protein production: failed

MKLVTYNIQYGIGLDGQYDVARIADAVRGADVVALQEVTRNNPRNGGRDMVAEIGEALPDYFAVYGSNFEANIGSRIENGRAITTTFQLGNMMLSKTPIHLSRNLLLPRSRSFEMMNFQRGALEALIETPLGFIRFYSIHLDHRSPVERASQIQFLRRRLLNYALEGGALSGVAEIGLPELPHPEAFVAMGDFNMLAGSPEYVELAGRPDHQFGMPLTADFAVDAAVRLNVTGDDLASWVDPKDPANTSRHKRIDYVFTSASPARSLQHLWVDHQATGSDHLPVWAELG
protein production: failed

MVRVLSAGPELAFRSGDVVAPARTHPLVAAAPSCPMTAAAPRERADRWPRREDLFAIAYYLAAAAVLAWAGYAAWRIGVVLAGGALQQVGVRSCRQRDASRCVNATFDRIALYVVLGQASFFLTTALAAAVTGGEQSPLILPFLGSYFVAVSVVGDRVATRGLLAATAFGAAVLALLPDAVAGPALPALQRGVLTVVSVLGVGALLAPAHAETRRKRDQVARARSEMVSDALSRAQGLEQVGAKVAHELKNPLTGVKALVQLGLRNPAEAASHERLEVVDREVTRMQEIIQNYLSFNRPLQSVNPRQVALGPLVSDTMLVLSARADEARVRLYARGDASLEADPRRLKEALLNLVANAIEATPAGGEVVVEARELSGDEVELVVRDTGRGMPPETLRRIGTPFFTTRDDGTGLGVVLARAVIVQHGGTLRYESEPGSGTKVLVTLPRAAKRSGDVARAAGG
protein production: failed

MKILLFICGEGLGHTGRCLALGKEFLAAGHEVNFGAYGYSKGLVQKTGYSAYEIPSEIKLAGEAGTFDIRKSIKETLNNLSPSGFRKILRLIEKLDPDVVLSDGYYTGILAAQKRKVPVYFIGHQFNMEEFFWKKGLFAGIAGIFVKRFYNYVFSSVDGIIVPDYPLPYSVNRKNFTISRAVNDNIFFSGPLIRCRYQEAGEKAFKRPNVLSTIGAFGYRAAVFRNVLEAAKLDPSIYYTFISGPEIDPEQFSKVPENVEFTGFTENPFPYYKGSDLVITAGGHGTIMESLAFGLPILSFPDEKHAEQENNASVLEEAGYGKRMSYLTPPEVILACIREIFEDENYSKKTRRLMELAEVLDGPAAVRKFLEEKHRGLEHHHHHH
protein production: failed

MFYHDFRTMLIRLRAQFIKELLCILRDPRNRVVVFVPPLMQLLIFSYAATMEVRNLDIAVYNQDTGRAAQELVWHLEAARFIAQVHHVHSNTALREQLVQGKVIAAIAIPADFSRTVAVSGSGHAQVLVDGRRSNSGQIVVGYLSSIARDIRFTADTAPIPETSVTVRHWFNPNLVYLWFMVPGLTGTLAFFSALMITALSIARERELGTFDQLLVSPASTLEIILSKSLPALVISSLLALLMITLAIWFFRIPFTGSFGLLLIGLVLFILSAVGIGLVISAISMTQQQAILGGFVIGVPTVLISGFATPVENMPLLLQWLAQAIPLTHFLIIIEGCFLKALPPRDVLANLWPLAVIAFTMLPIAMIFARSRLQ
protein production: failed

MLEKSLAILFALLILATLINRFLVWRLPERKGDEVTLRIRTWWGIVICFSLVISGPRWMTLTFFALISFLALKEYCTLISVHFPRWLYWVIPLNYLLIGFNCFELFLLFIPLAGFLILATWRVFVGDPSGFLHTVSAIFCGWIMTVFTLSHAAWLLMLPTINIQGGALLVLFLLALTESNDIAQYLWGKSCGRRKVVPKVSPGKTLEGLVGGVITTMIASLIIGPLLTPLNTLQVLLAGLLIGISGFCGDVVMSATKRDVGVKDSGKLLPGHGGLLDRIDSLIFTAPVFFYFIRYCCY
protein production: failed

MSYSTFALCHWARDRQRGRKTVADMVHRMTQATARVIGLEDRGELAVGKRADINVIDLAQLALRPPQVCHDLPAGGRRLIQRATGYSLTMLAGEIVLRDDEPLEHHHHHH
protein production: not failed

MTTGVRRRMGVEERRQQLIGVALDLFSRRSPDEVSIDEIASAAGISRPLVYHYFPGKLSLYEAALQRASDDLADRFVEPRQGPLGARLLRVMGRYFDFVDEHGPGFSALMRGGPAVGSTTTNALVDSVRQAAYVQILSHLDVTEPPARLELVVRSWISLAESTALLWLDGRRIPRAELETQLVHDFAALMAVSAAYDEEMGALVRRVLADEPEDGPFGDLVDRLLALSAR
protein production: not failed

MGTKKNFVLDTNVILHDYNCLKNFQENDIYLPIVVLEELDKFKKGNEQINYNAREFVRELDLITDDSLFTHGAPLGEGLGKLFIVTGDSEAPKVHESFPARKPDHQILAVAEYLARKYPKMKNILVTKDVNLRMKARSIGILCEDYITDKVVNVDIFE
protein production: failed

MMALQEEKGKPVHCERHHESSSVDTEPGLEESKEVIKWKRLPGQACRIPNKHLFSLNAGERGCFCLDFSHNGRILAAACASRDGYPIILYEIPSGRFMRELCGHLNIIYDLSWSKDDHYILTSSSDGTARIWKNEINNTNTFRVLPHPSFVYTAKFHPAVRELVVTGCYDSMIRIWKVEMREDSAILVRQFDVHKSFINSLCFDTEGHHMYSGDCTGVIVVWNTYVKINDLEHSVHHWTINKEIKETEFKGIPISYLEIHPNGKRLLIHTKDSTLRIMDLRILVARKFVGAANYREKIHSTLTPCGTFLFAGSEDGIVYVWNPETGEQVAMYSDLPFKSPIRDISYHPFENMVAFCAFGQNEPILLYIYDFHVAQQEAEMFKRYNGTFPLPGIHQSQDALCTCPKLPHQGSFQIDEFVHTESSSTKMQLVKQRLETVTEVIRSCAAKVNKNLSFTSPPAVSSQQSKLKQSNMLTAQEILHQFGFTQTGIISIERKPCNHQVDTAPTVVALYDYTANRSDELTIHRGDIIRVFFKDNEDWWYGSIGKGQEGYFPANHVASETLYQELPPEIKERSPPLSPEEKTKIEKSPAPQKVK
protein production: failed

MQLNESMSTQDNSLAENYYQQAIEQWKSRDQKQALQFFKKAVRAKPSNAHYWYALAGTYHIQNKFRAARFCFEKSLNLNPNQDEIKIFLCEICYLLTDYKSVAYYAGQVDLSKIQNLEILYKVACSFKELGQLEKTGQVCSQILSLDDNFWQAKLLAAEILRIKGYSGEAKVLVLELIDQQPTVGKFWNELGINEVDLAHEDEALSAFSKAEQYVSGPEKLIIGSNYLFEFSSGLRTAKDILDAHLLWNKKYCKDQGGSFQSSKFNYLKSNDKKNIAYLSGDFKTHSVSYFIEGILENHSRDAFNIILLSNTQEDEKTKKFKELADIWIDLKLTNFETAAQIVKRLNIDILIELSGHTNGNKLNLLSSRLAPVQATYLGYFATTGLSTIDYWITDNVVHPAHTVELATETIFRLPRCYLAYTPPPQSPSIAESPVIKNGYITFGSFVASRKISDYSILLWSSILSEIPNSQLLIKNRSCVSPLYRSELIEKFSLCGISSQRINFNEAKLNLEDHLALYNKVDIALDTYPASGCTTTVEALWMGVPVLTRLGELMVSRNSASLLHALNLQNWIAETDEEYIDKGIKFTQSIEQLALLRQGMRERFMQSELYDSRGLTLHLEDFYLKALQEKLSANKEVRF
protein production: failed

MAEASATEPERPDQESADDAVIATRALTKRYRGGQLAVDGLDLTVPAGSVFGFLGPNGSGKTTTIRMLMGLIEPTSGSARVLGRPMPRAARAVLPRVGALIEGPALYGFLSGRDNLLRYDAADPTADPRTRRERVAAALDRVGLAAAGGKKAKAYSLGMKQRLGLAAALLQPRRLLVLDEPTNGLDPQGMREIRSLVRELASDGTTVFLSSHLLDEIEQVCTHAAVMAQGRLITQGAVADLAAGARGRLVVTTPDAGDAARVLKEQGAADVVVDGDRVTAEPPERDLAEVNAALVAARVRVRGFVVERASLEDAFVALTGEGFDVAG
protein production: failed
